The target of test [1] is T1, human alpha-synuclein monomer (human, UniProt P37840 1-140). As to the kind of experiment: SPR (Biacore 8K), IgG captured on anti-human Fc, aSyn monomer injected. For orientation: SPR reads the build-up and loss of mass on a sensor chip optically.
Procedure: (§1) Serial 3-fold dilutions of aSyn were injected at a flow rate of 30 μL/min. Each sample was analyzed using a 3-minute association and a 10-minute dissociation. After each injection, the chip was regenerated using 3 M MgCl₂. Binding response was corrected by subtracting the RU from a flow cell capturing an irrelevant IgG at similar density. A 1:1 Languir model of simultaneous fitting of kₒₙ and koff was used for kinetics analysis.
Test [2] has as its target T1, human alpha-synuclein monomer. Described as above. The source holds these as a separate data set.
Procedure: as §1

Where two headings read alike, the source gives them in different places.

Our source for the Kd values is patent publication US20230074436A1 (DENALI THERAPEUTICS, published 2023).

As a reminder, the Kd is the equilibrium constant for the complex coming apart. Read a low Kd as higher affinity.

B1: HC2_L3_1 (antibody, V domains shown)
VH: EVQLVESGGGLVQPGGSLRLSCAASGFTFSNAAMYWVRQAPGKGLELVSRIRTKPNNYATYHADSVKGRFTISRDNSKNTLYLQMNSLRAEDTAVYYCTADMATGDYWGQGTLVTVSS
VL: DIQMTQSPSSLSASVGDRVTITCKASQNINKNLDWYQQKPGKAPKPLIYSTNNLQTGVPSRFSGSGSGTDFTLTISSLQPEDFATYYCYQDKNGWTFGQGTKVEIK
B1 displayed a Kd in test [1] of 4.2 nM.

B2: HC6_LC_k3_2_v1 (antibody, V domains shown)
VH: EVQLVESGGGLVQPGGSLRLSCAASGFTFSNAAMYWVRQAPGKGLELVSRIRTKPNNYATYHADSVKGRFTISRDDSKNTLYLQMNSLRAEDTAVYYCTADMATGDYWGQGTLVTVSS
VL: EIVMTQSPATLSLSPGERATLSCKASQNINKNLDWYQQKPGQAPRPLIYSTNNLKTGIPARFSGSGSGTDFTLTISSLQPEDFAVYYCYQYKSAWTFGQGTKVEIK
B2 registered a Kd in test [2] of 0.22 nM.

B3: HC2_L3_8 (antibody, V domains shown)
VH: EVQLVESGGGLVQPGGSLRLSCAASGFTFSNAAMYWVRQAPGKGLELVSRIRTKPNNYATYHADSVKGRFTISRDNSKNTLYLQMNSLRAEDTAVYYCTADMATGDYWGQGTLVTVSS
VL: DIQMTQSPSSLSASVGDRVTITCKASQNINKNLDWYQQKPGKAPKPLIYSTNNLQTGVPSRFSGSGSGTDFTLTISSLQPEDFATYYCYQFKKAWTFGQGTKVEIK
B3: the Kd in test [1] came out at 3.01 nM.

B4: 20H4_HC5_LC_k3_2_v2 (antibody, V domains shown)
VH: EVQLVESGGGLVQPGGSLRLSCAASGFTFSNAAMYWVRQAPGKGLELLARIRTKPNNYATYHADSVKGRFTISRDDSKNTVYLQMNSLRAEDTAVYYCTADMATGDYWGQGTLVTVSS
VL: EIVMTQSPATLSLSPGERATLSCKASQNINKNLDWYQQKPGQAPRPLIYSTNNLQTGIPARFSGSGSGTDFTLTISSLQPEDFAVYYCYQYKSAWTFGQGTKVEIK
Regarding B4, binding in test [2] was put at a Kd of 1.3 nM.

B5: HC2_L3_5 (antibody, V domains shown)
VH: EVQLVESGGGLVQPGGSLRLSCAASGFTFSNAAMYWVRQAPGKGLELVSRIRTKPNNYATYHADSVKGRFTISRDNSKNTLYLQMNSLRAEDTAVYYCTADMATGDYWGQGTLVTVSS
VL: DIQMTQSPSSLSASVGDRVTITCKASQNINKNLDWYQQKPGKAPKPLIYSTNNLQTGVPSRFSGSGSGTDFTLTISSLQPEDFATYYCYQYKNAWTFGQGTKVEIK
Take B5: in test [1], the Kd was 3.24 nM.

B6: HC5_LC_k3_2_v1 (antibody, V domains shown)
VH: EVQLVESGGGLVQPGGSLRLSCAASGFTFSNAAMYWVRQAPGKGLELLARIRTKPNNYATYHADSVKGRFTISRDDSKNTVYLQMNSLRAEDTAVYYCTADMATGDYWGQGTLVTVSS
VL: EIVMTQSPATLSLSPGERATLSCKASQNINKNLDWYQQKPGQAPRPLIYSTNNLKTGIPARFSGSGSGTDFTLTISSLQPEDFAVYYCYQYKSAWTFGQGTKVEIK
In turn, B6 displayed a Kd in test [2] of 0.17 nM.

B7: HC6_LC_k3_1 (antibody, V domains shown)
VH: EVQLVESGGGLVQPGGSLRLSCAASGFTFSNAAMYWVRQAPGKGLELVSRIRTKPNNYATYHADSVKGRFTISRDDSKNTLYLQMNSLRAEDTAVYYCTADMATGDYWGQGTLVTVSS
VL: EIVMTQSPATLSLSPGERATLSCKASQNINNNLDWYQQKPGQAPRPLIYSTNNLKTGIPARFSGSGSGTDFTLTISSLQPEDFAVYYCYQYKSAWTFGQGTKVEIK
In turn, B7 registered a dissociation constant (Kd) in test [2] of 0.16 nM.

B8: HC6_LC_k3_3 (antibody, V domains shown)
VH: EVQLVESGGGLVQPGGSLRLSCAASGFTFSNAAMYWVRQAPGKGLELVSRIRTKPNNYATYHADSVKGRFTISRDDSKNTLYLQMNSLRAEDTAVYYCTADMATGDYWGQGTLVTVSS
VL: EIVMTQSPATLSLSPGERATLSCKASQNINQNLDWYQQKPGQAPRPLIYSTNNLKTGIPARFSGSGSGTDFTLTISSLQPEDFAVYYCYQYKSAWTFGQGTKVEIK
B8 came in with an equilibrium dissociation constant (Kd) in test [2] of 0.16 nM.

B9: HC2_L3_9 (antibody, V domains shown)
VH: EVQLVESGGGLVQPGGSLRLSCAASGFTFSNAAMYWVRQAPGKGLELVSRIRTKPNNYATYHADSVKGRFTISRDNSKNTLYLQMNSLRAEDTAVYYCTADMATGDYWGQGTLVTVSS
VL: DIQMTQSPSSLSASVGDRVTITCKASQNINKNLDWYQQKPGKAPKPLIYSTNNLQTGVPSRFSGSGSGTDFTLTISSLQPEDFATYYCYQYKYAWTFGQGTKVEIK
Turning to B9, in test [1], binding was put at a Kd of 2.98 nM.

B10: HC2_L3_7 (antibody, V domains shown)
VH: EVQLVESGGGLVQPGGSLRLSCAASGFTFSNAAMYWVRQAPGKGLELVSRIRTKPNNYATYHADSVKGRFTISRDNSKNTLYLQMNSLRAEDTAVYYCTADMATGDYWGQGTLVTVSS
VL: DIQMTQSPSSLSASVGDRVTITCKASQNINKNLDWYQQKPGKAPKPLIYSTNNLQTGVPSRFSGSGSGTDFTLTISSLQPEDFATYYCYQYKNGWTFGQGTKVEIK
For B10, binding in test [1] was put at a Kd of 4.59 nM.

B11: HC2_L3_2 (antibody, V domains shown)
VH: EVQLVESGGGLVQPGGSLRLSCAASGFTFSNAAMYWVRQAPGKGLELVSRIRTKPNNYATYHADSVKGRFTISRDNSKNTLYLQMNSLRAEDTAVYYCTADMATGDYWGQGTLVTVSS
VL: DIQMTQSPSSLSASVGDRVTITCKASQNINKNLDWYQQKPGKAPKPLIYSTNNLQTGVPSRFSGSGSGTDFTLTISSLQPEDFATYYCYQDKRGWTFGQGTKVEIK
On to B11, for which, in test [1], the dissociation constant Kd came out at 4.52 nM.

B12: HC2_L3_4 (antibody, V domains shown)
VH: EVQLVESGGGLVQPGGSLRLSCAASGFTFSNAAMYWVRQAPGKGLELVSRIRTKPNNYATYHADSVKGRFTISRDNSKNTLYLQMNSLRAEDTAVYYCTADMATGDYWGQGTLVTVSS
VL: DIQMTQSPSSLSASVGDRVTITCKASQNINKNLDWYQQKPGKAPKPLIYSTNNLQTGVPSRFSGSGSGTDFTLTISSLQPEDFATYYCYQDKSGWTFGQGTKVEIK
For the molecule B12, binding in test [1] was characterised by a dissociation constant (Kd) of 2.84 nM.

B13: HC5_LC_k3_5 (antibody, V domains shown)
VH: EVQLVESGGGLVQPGGSLRLSCAASGFTFSNAAMYWVRQAPGKGLELLARIRTKPNNYATYHADSVKGRFTISRDDSKNTVYLQMNSLRAEDTAVYYCTADMATGDYWGQGTLVTVSS
VL: EIVMTQSPATLSLSPGERATLSCKASQNINKQLDWYQQKPGQAPRPLIYSTNNLKTGIPARFSGSGSGTDFTLTISSLQPEDFAVYYCYQYKSAWTFGQGTKVEIK
In the case of B13, in test [2], binding was characterised by a dissociation constant (Kd) of 0.13 nM.

B14: HC2_L3_10 (antibody, V domains shown)
VH: EVQLVESGGGLVQPGGSLRLSCAASGFTFSNAAMYWVRQAPGKGLELVSRIRTKPNNYATYHADSVKGRFTISRDNSKNTLYLQMNSLRAEDTAVYYCTADMATGDYWGQGTLVTVSS
VL: DIQMTQSPSSLSASVGDRVTITCKASQNINKNLDWYQQKPGKAPKPLIYSTNNLQTGVPSRFSGSGSGTDFTLTISSLQPEDFATYYCYQYKLAWTFGQGTKVEIK
In turn, B14 came in with a Kd in test [1] of 2.93 nM.

B15: HC2_L3_6 (antibody, V domains shown)
VH: EVQLVESGGGLVQPGGSLRLSCAASGFTFSNAAMYWVRQAPGKGLELVSRIRTKPNNYATYHADSVKGRFTISRDNSKNTLYLQMNSLRAEDTAVYYCTADMATGDYWGQGTLVTVSS
VL: DIQMTQSPSSLSASVGDRVTITCKASQNINKNLDWYQQKPGKAPKPLIYSTNNLQTGVPSRFSGSGSGTDFTLTISSLQPEDFATYYCYQYKKAWTFGQGTKVEIK
Turning to B15, in test [1], the affinity, expressed as Kd, was 3.28 nM.

B16: HC5_LC_k3_4 (antibody, V domains shown)
VH: EVQLVESGGGLVQPGGSLRLSCAASGFTFSNAAMYWVRQAPGKGLELLARIRTKPNNYATYHADSVKGRFTISRDDSKNTVYLQMNSLRAEDTAVYYCTADMATGDYWGQGTLVTVSS
VL: EIVMTQSPATLSLSPGERATLSCKASQNINENLDWYQQKPGQAPRPLIYSTNNLKTGIPARFSGSGSGTDFTLTISSLQPEDFAVYYCYQYKSAWTFGQGTKVEIK
For B16, the dissociation constant Kd in test [2] came out at 0.15 nM.

B17: HC2_L3_11 (antibody, V domains shown)
VH: EVQLVESGGGLVQPGGSLRLSCAASGFTFSNAAMYWVRQAPGKGLELVSRIRTKPNNYATYHADSVKGRFTISRDNSKNTLYLQMNSLRAEDTAVYYCTADMATGDYWGQGTLVTVSS
VL: DIQMTQSPSSLSASVGDRVTITCKASQNINKNLDWYQQKPGKAPKPLIYSTNNLQTGVPSRFSGSGSGTDFTLTISSLQPEDFATYYCYQYKFAWTFGQGTKVEIK
As for B17, in test [1], binding was put at a Kd of 3.4 nM.

B18: HC2_L3_3 (antibody, V domains shown)
VH: EVQLVESGGGLVQPGGSLRLSCAASGFTFSNAAMYWVRQAPGKGLELVSRIRTKPNNYATYHADSVKGRFTISRDNSKNTLYLQMNSLRAEDTAVYYCTADMATGDYWGQGTLVTVSS
VL: DIQMTQSPSSLSASVGDRVTITCKASQNINKNLDWYQQKPGKAPKPLIYSTNNLQTGVPSRFSGSGSGTDFTLTISSLQPEDFATYYCYQDKKGWTFGQGTKVEIK
As to B18, in test [1], the equilibrium dissociation constant (Kd) amounted to 5.28 nM.

B19: 20H4_HC5_LC_k3_1 (antibody, V domains shown)
VH: EVQLVESGGGLVQPGGSLRLSCAASGFTFSNAAMYWVRQAPGKGLELLARIRTKPNNYATYHADSVKGRFTISRDDSKNTVYLQMNSLRAEDTAVYYCTADMATGDYWGQGTLVTVSS
VL: EIVMTQSPATLSLSPGERATLSCKASQNINNNLDWYQQKPGQAPRPLIYSTNNLKTGIPARFSGSGSGTDFTLTISSLQPEDFAVYYCYQYKSAWTFGQGTKVEIK
With B19, in test [2], the dissociation constant (Kd) was found to be 0.13 nM.

B20: HC5_LC_k3_3 (antibody, V domains shown)
VH: EVQLVESGGGLVQPGGSLRLSCAASGFTFSNAAMYWVRQAPGKGLELLARIRTKPNNYATYHADSVKGRFTISRDDSKNTVYLQMNSLRAEDTAVYYCTADMATGDYWGQGTLVTVSS
VL: EIVMTQSPATLSLSPGERATLSCKASQNINQNLDWYQQKPGQAPRPLIYSTNNLKTGIPARFSGSGSGTDFTLTISSLQPEDFAVYYCYQYKSAWTFGQGTKVEIK
On to B20, for which binding in test [2] was put at a Kd of 0.17 nM.

B21: HC5_LC_k3_6 (antibody, V domains shown)
VH: EVQLVESGGGLVQPGGSLRLSCAASGFTFSNAAMYWVRQAPGKGLELLARIRTKPNNYATYHADSVKGRFTISRDDSKNTVYLQMNSLRAEDTAVYYCTADMATGDYWGQGTLVTVSS
VL: EIVMTQSPATLSLSPGERATLSCKASANINKQLDWYQQKPGQAPRPLIYSTNNLKTGIPARFSGSGSGTDFTLTISSLQPEDFAVYYCYQYKSAWTFGQGTKVEIK
As to B21, binding in test [2] was characterised by a dissociation constant (Kd) of 0.19 nM.
